Experimental findings from patent US20100056762A1 (published 2010) are described below.

Bridges are numbered along the chain shown (N, C = ends). Where no end group is shown, it is not given here.

For one assay, the target named is wtEGFR-FLAG (human) (UniProt P00533). In words: FACS, Ba/F3 cells; reference M2 anti-FLAG.
Assay [1] has as its target C271A/C283A EGFR mutant (human) (UniProt P00533). In words: FACS, Ba/F3 cells, four clones; reference M2 anti-FLAG.
In assay [2] the target is wild-type epidermal growth factor receptor (wtEGFR) (human) (UniProt P00533). Kind of assay: Scatchard, A431 cells.
The target in assay [3] is T1, EGFR peptide 287-302 (mAb806 peptide epitope) (human, disulfide 1-16).
T1 peptide: CGADSYEMEEDGVRKC
In words: BIAcore, immobilised peptide, antibody 200 nM.

Turning to 528 antibody, the figures for the ratio of antibody binding mAb 528/M2 (ratio of median fluorescence) (in the assay with wtEGFR-FLAG (human); in assay [1]) were 1.37 and 1.08, respectively. This molecule also returned a receptors per cell (receptors per cell) in assay [2] of 2e+06.

B1: mAb1133 (antibody, V domains shown)
VH: DVQLQGSGPSLVKPSQSLSLTCTVTGYSITSDYAWNWIRQFPGNKLEWMGYISYSGNTRYNPSLRSRISITRDTSKNQFFLQLNSVTTEDTATYYCATAGRGFPYWGQGTLVTVSA
VL: DILMTQSPSSMSVSLGDTVNITCHSSQDINSNIGWLQQKPGKSFKGLIYHGTNLDDGVPSRFSGSGSGADYSLTISSLESEDFADYYCVQYGQFPWTFGGGTKLEIKR
notes: murine IgG2a; also called 1133 antibody; clone 1133
B1: the “maximal binding (RU)” value in assay [3] is 800 RU.
